Measured values from PMC9409194, “Salt Dependence of DNA Binding Activity of Human Transcription Factor Dlx3”.

Target: Dlx3-HD (human, UniProt O60479 129-188)
Test: NMR (1H/15N-HSQC CSP and imino proton titration); 100 mM NaCl, 35 C; slow exchange; 10 mM sodium phosphate pH 6.0, 100, 250 or 500 mM NaCl, 90% H2O/10% D2O, 35 C
Conditions: protein: recombinant; tags: Ni-NTA purified (His-tag implied); blunt

Dlx3-HD, sequence (O60479 129-188): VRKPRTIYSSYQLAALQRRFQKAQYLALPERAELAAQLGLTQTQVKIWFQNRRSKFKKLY

B1: dlxDNA (dsDNA)
DNA 1: CGTAATTGCC
DNA 2: GGCAATTACG
B1: binds.
